T1: human CD39 (human, UniProt P49961 38-478, limits assumed)
T1 construct: Target as named in the general statements on 5F2 and PB1-PB5 specificity; also called hCD39; ectonucleoside triphosphate diphosphohydrolase-1
T1 sequence (looked up): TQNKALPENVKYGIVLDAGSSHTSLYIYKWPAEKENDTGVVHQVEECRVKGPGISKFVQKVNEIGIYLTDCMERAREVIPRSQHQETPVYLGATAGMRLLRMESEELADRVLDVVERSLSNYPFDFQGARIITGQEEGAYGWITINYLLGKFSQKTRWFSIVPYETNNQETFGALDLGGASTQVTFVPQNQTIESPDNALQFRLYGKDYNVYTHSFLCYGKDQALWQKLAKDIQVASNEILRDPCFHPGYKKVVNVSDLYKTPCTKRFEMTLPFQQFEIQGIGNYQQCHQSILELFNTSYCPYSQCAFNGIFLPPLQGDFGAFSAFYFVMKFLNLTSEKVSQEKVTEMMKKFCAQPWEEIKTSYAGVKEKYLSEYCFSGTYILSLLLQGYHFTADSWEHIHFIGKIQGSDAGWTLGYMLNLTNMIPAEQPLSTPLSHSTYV

T2: mouse CD39 (mouse, UniProt P55772 38-478, limits assumed)
T2 construct: Target as named in the general statement on 5F2 specificity; also called mCD39
T2 sequence (looked up): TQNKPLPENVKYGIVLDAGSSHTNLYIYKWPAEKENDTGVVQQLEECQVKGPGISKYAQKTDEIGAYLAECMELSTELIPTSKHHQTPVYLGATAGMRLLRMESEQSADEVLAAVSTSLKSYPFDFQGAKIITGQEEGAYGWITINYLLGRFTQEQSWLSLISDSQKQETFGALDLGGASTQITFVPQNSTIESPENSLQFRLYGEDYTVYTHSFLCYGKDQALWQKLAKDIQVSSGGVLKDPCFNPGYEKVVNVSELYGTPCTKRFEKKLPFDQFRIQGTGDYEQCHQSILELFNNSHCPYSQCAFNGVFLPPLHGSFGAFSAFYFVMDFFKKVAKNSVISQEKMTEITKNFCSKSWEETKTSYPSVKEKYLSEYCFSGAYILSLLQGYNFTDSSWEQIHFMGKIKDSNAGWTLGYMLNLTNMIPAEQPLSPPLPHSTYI

B1: murine monoclonal 5F2 (anti-CD39 antibody) (antibody, V domains shown)
VH: EVQLEESGPGLVQPSQRLSITCTISGFSLTSYGIHWVRQSPGKGLEWLGVIWSGGNTDYNAAFISRLSISKDNSKSQVFFKMNSLQVGDTATYYCARNGHGSNIPWFVYWGQGTLVTVST
VL: DIQLTQSPASLSVATGEKVTIRCITSTDVDDDMNWFQQKPGEPPNLLISEGDTLRPGVPSRFSSSGYGTDFVFTIENTLSEDVADYYCLQSDNMPLTFGGGTKLEIK
notes: also called anti-CD39 5F2 antibody; 5F2 mAb
B2: PB4 rabbit monoclonal anti-human CD39 antibody (antibody, V domains shown)
VH: QEQLVESGGGLVQPEGSLTLTCTASGFSFSSSYYMCWVRQAPGKGLEWIGCIYIGSSTTYYATWAKGRFTISKTSSTAVTLQMTGLTAADTATYFCARDQYDDSGNLWGPGTLVTVSS
VL: DVVMTQTPASVSEPVGGTVTIKCQASQSIYSGLAWYQQKPGQPPNLLIYKASNLASGVSSRFKGSRSGTEYTLTISDLECADAATYYCQNWYGISSYGRAFGGGTEVVVKG
notes: Full rabbit heavy and light chains

How the values were obtained:
human CD39 = target: T1, human CD39; assay: assay not described
mouse CD39 = target: T2, mouse CD39; assay: assay not described

Binder	binding result (human CD39)	binding result (mouse CD39)
B1	binds	binds
B2	binds	

Source: patent US20210253731A1 (BETH ISRAEL DEACONESS MEDICAL CENTER, published 2021)
